{
  "source": "the supplement of paper PMC10724198",
  "note": "± gives the standard deviation of the averaged measurements.",
  "data": [
    {"test_system": "Saccharomyces cerevisiae", "test": "protein stability index of tFT-peptide fusion (C-terminal peptide) (PSI (0-1 scale)); higher = more stable (slower turnover)", "conditions": "genetic background: das1 deletion; temperature: 30 C", "method": "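MPS profiling in S. cerevisiae of the yeast C-terminome library: the last 12 aa of each annotated ORF are fused to the C-terminus of a sfGFP-mCherry timer, after a GGGS linker. Cells are FACS-sorted into 8 mCherry/sfGFP bins and deep-sequenced. PSI runs from 0 (unstable) to 1 (stable); wild type and das1Δ backgrounds, two technical replicates each.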", "values": [
      {"sequence": "DCGWVSDAYKNH [LCL2 C-terminal 12 aa]", "protein stability index": "0.735 ± 0.019"},
      {"sequence": "DDDEEDEIVEVA [HGH1 C-terminal 12 aa]", "protein stability index": "0.698 ± 0.033"},
      {"sequence": "DDDGDYFEHDEL [KAR2 C-terminal 12 aa]", "protein stability index": "0.688 ± 0.017"},
      {"sequence": "DDGDSDSWDTNW [CEX1 C-terminal 12 aa]", "protein stability index": "0.701 ± 0.024"},
      {"sequence": "DDQDAISNQEKK [EIS1 C-terminal 12 aa]", "protein stability index": "0.712 ± 0.057"},
      {"sequence": "DDRPIYKRFFSS [HXT9 C-terminal 12 aa]", "protein stability index": "0.7117 ± 0.0052"},
      {"sequence": "DEDDGMIIGSLW [AEP2 C-terminal 12 aa]", "protein stability index": "0.7004 ± 0.0057"},
      {"sequence": "DEELHPLSDEGM [DPP1 C-terminal 12 aa]", "protein stability index": "0.691 ± 0.011"},
      {"sequence": "DEEREDDNYVPQ [CBC2 C-terminal 12 aa]", "protein stability index": "0.689 ± 0.028"},
      {"sequence": "DEKVKKMVENLQ [TRS23 C-terminal 12 aa]", "protein stability index": "0.7295 ± 0.0065"},
      {"sequence": "DFLTLVQTNSDT [YPL250W-A C-terminal 12 aa]", "protein stability index": "0.712 ± 0.0071"},
      {"sequence": "DFNSKSKKKNDK [MIN6 C-terminal 12 aa]", "protein stability index": "0.697 ± 0.024"},
      {"sequence": "DGPGLNNFGITL [BMT2 C-terminal 12 aa]", "protein stability index": "0.6975 ± 0.00032"},
      {"sequence": "DIEINDDLNGVL [VPS41 C-terminal 12 aa]", "protein stability index": "0.653 ± 0.016"},
      {"sequence": "DIFEDSSDEEQS [SPL2 C-terminal 12 aa]", "protein stability index": "0.7179 ± 0.00076"},
      {"sequence": "DKHEQPQIESPK [CFD1 C-terminal 12 aa]", "protein stability index": "0.7 ± 0.026"},
      {"sequence": "DKKLEEQLRDLV [MTC3 C-terminal 12 aa]", "protein stability index": "0.6866 ± 0.0029"},
      {"sequence": "DKSTFGLSPVKI [GRS2 C-terminal 12 aa]", "protein stability index": "0.691 ± 0.033"},
      {"sequence": "DLDFLGSDIEFE [HFM1 C-terminal 12 aa]", "protein stability index": "0.718 ± 0.016"},
      {"sequence": "DLESLTAKLIQG [HCA4 C-terminal 12 aa]", "protein stability index": "0.7 ± 0.022"},
      {"sequence": "DLIDDKTNRGRR [PRP2 C-terminal 12 aa]", "protein stability index": "0.696 ± 0.029"},
      {"sequence": "DLIKEHSKDIQV [HCH1 C-terminal 12 aa]", "protein stability index": "0.6872 ± 0.0016"},
      {"sequence": "DMEMEAIAAERD [HMF1 C-terminal 12 aa]", "protein stability index": "0.714 ± 0.03"},
      {"sequence": "DNLKYSLDCDFS [BGL2 C-terminal 12 aa]", "protein stability index": "0.709 ± 0.023"},
      {"sequence": "DNRPIYKRFFSS [HXT11 C-terminal 12 aa]", "protein stability index": "0.7072 ± 0.0066"},
      {"sequence": "DNTKESKDVKMN [RTT102 C-terminal 12 aa]", "protein stability index": "0.6878 ± 0.004"},
      {"sequence": "DNTTKHSSNVHT [YER079W C-terminal 12 aa]", "protein stability index": "0.668 ± 0.014"},
      {"sequence": "DNVEQRVLKQYM [EMC3 C-terminal 12 aa]", "protein stability index": "0.6864 ± 0.0062"},
      {"sequence": "DPLYYVYCLHMP [NAT4 C-terminal 12 aa]", "protein stability index": "0.6582 ± 0.0016"},
      {"sequence": "DQPFYKSLFSRK [HXT1 C-terminal 12 aa]", "protein stability index": "0.7117 ± 0.0036"},
      {"sequence": "DRDGCVNAVLLV [NSA2 C-terminal 12 aa]", "protein stability index": "0.701 ± 0.012"},
      {"sequence": "DRWLNRKALNKG [BUD21 C-terminal 12 aa]", "protein stability index": "0.695 ± 0.031"},
      {"sequence": "DSATLVNVHIKR [SPR3 C-terminal 12 aa]", "protein stability index": "0.7064 ± 0.0062"},
      {"sequence": "DSNTGGIIASIF [YKL104W-A C-terminal 12 aa]", "protein stability index": "0.702 ± 0.027"},
      {"sequence": "DSSKYSLGNNSS [SUR1 C-terminal 12 aa]", "protein stability index": "0.713 ± 0.025"},
      {"sequence": "DTFIPSTLQSVT [YNL089C C-terminal 12 aa]", "protein stability index": "0.702 ± 0.026"},
      {"sequence": "DTVKILTELFNL [SEC53 C-terminal 12 aa]", "protein stability index": "0.707 ± 0.011"},
      {"sequence": "DTVPPEKLMKFV [RAX2 C-terminal 12 aa]", "protein stability index": "0.7111 ± 0.0024"},
      {"sequence": "DVEELREQLENC [AIM7 C-terminal 12 aa]", "protein stability index": "0.692 ± 0.0025"},
      {"sequence": "DVQGICLRNDKK [SLX4 C-terminal 12 aa]", "protein stability index": "0.684 ± 0.011"},
      {"sequence": "DYDEEDPYEDPF [IKI1 C-terminal 12 aa]", "protein stability index": "0.731 ± 0.042"},
      {"sequence": "EADMKTKLDISD [NBP2 C-terminal 12 aa]", "protein stability index": "0.695 ± 0.015"},
      {"sequence": "EANFWTAALEYE [THI21 C-terminal 12 aa]", "protein stability index": "0.7334 ± 0.0016"},
      {"sequence": "EANLKVLNGLEI [YPR148C C-terminal 12 aa]", "protein stability index": "0.687 ± 0.024"},
      {"sequence": "EAQLSCNYEPLP [COS10 C-terminal 12 aa]", "protein stability index": "0.707 ± 0.021"},
      {"sequence": "ECAPVPPAVRSY [SDH9 C-terminal 12 aa]", "protein stability index": "0.683 ± 0.011"},
      {"sequence": "ECYLITILWLHK [TDA2 C-terminal 12 aa]", "protein stability index": "0.256 ± 0.031"},
      {"sequence": "EDKEIVDGKVLK [TEF4 C-terminal 12 aa]", "protein stability index": "0.663 ± 0.016"},
      {"sequence": "EDSHYGNAKKVT [FPS1 C-terminal 12 aa]", "protein stability index": "0.708 ± 0.0097"},
      {"sequence": "EDVQLALNKHMN [YAP1 C-terminal 12 aa]", "protein stability index": "0.685 ± 0.01"},
      {"sequence": "EEESTTSENLHF [RSM25 C-terminal 12 aa]", "protein stability index": "0.699 ± 0.0097"},
      {"sequence": "EELLNQPPEEQI [GPX1 C-terminal 12 aa]", "protein stability index": "0.712 ± 0.027"},
      {"sequence": "EELRPDTLESEL [REC107 C-terminal 12 aa]", "protein stability index": "0.683 ± 0.0093"},
      {"sequence": "EEMEEFKKLVMG [MIC19 C-terminal 12 aa]", "protein stability index": "0.7037 ± 0.0043"},
      {"sequence": "EEQRNHLKDLYG [SLU7 C-terminal 12 aa]", "protein stability index": "0.6968 ± 0.0037"},
      {"sequence": "EERKDALANNIK [CCS1 C-terminal 12 aa]", "protein stability index": "0.6794 ± 0.0017"},
      {"sequence": "EEVETVSEHVKV [DPA10 C-terminal 12 aa]", "protein stability index": "0.6781 ± 0.00078"},
      {"sequence": "EFLTNSILTRRK [COQ1 C-terminal 12 aa]", "protein stability index": "0.721 ± 0.048"},
      {"sequence": "EFVVQSLRSRNQ [YFR018C C-terminal 12 aa]", "protein stability index": "0.7231 ± 0.0049"},
      {"sequence": "EGEHEQVLENFQ [GUT1 C-terminal 12 aa]", "protein stability index": "0.702 ± 0.014"},
      {"sequence": "EGFIAKVMCCLD [RFC5 C-terminal 12 aa]", "protein stability index": "0.606 ± 0.0065"},
      {"sequence": "EGWNSDNVYKLS [CYC2 C-terminal 12 aa]", "protein stability index": "0.7213 ± 0.0026"},
      {"sequence": "EHDKSPLSRKRQ [SFI1 C-terminal 12 aa]", "protein stability index": "0.708 ± 0.015"},
      {"sequence": "EHRMLKLILNSG [NTO1 C-terminal 12 aa]", "protein stability index": "0.694 ± 0.017"},
      {"sequence": "EIKEMLVTLINK [SRL2 C-terminal 12 aa]", "protein stability index": "0.6725 ± 0.002"},
      {"sequence": "EIVGRYVVETSK [ADH5 C-terminal 12 aa]", "protein stability index": "0.678 ± 0.028"},
      {"sequence": "EKCSYYFLSRAH [YNL017C C-terminal 12 aa]", "protein stability index": "0.6866 ± 0.0041"},
      {"sequence": "EKGIFAGDINSD [COX12 C-terminal 12 aa]", "protein stability index": "0.7005 ± 0.0047"},
      {"sequence": "EKKDTEGDVDMD [SSE1 C-terminal 12 aa]", "protein stability index": "0.678 ± 0.0095"},
      {"sequence": "EKKRVLNAVCGL [YLR412C-A C-terminal 12 aa]", "protein stability index": "0.69 ± 0.016"},
      {"sequence": "EKPPKEEPESDI [TIM54 C-terminal 12 aa]", "protein stability index": "0.711 ± 0.032"},
      {"sequence": "EKVRCIKKYQSW [APD1 C-terminal 12 aa]", "protein stability index": "0.726 ± 0.0064"},
      {"sequence": "ELPNGKVIYSRK [ERJ5 C-terminal 12 aa]", "protein stability index": "0.687 ± 0.067"},
      {"sequence": "ELTSSDDCKDFI [YDR124W C-terminal 12 aa]", "protein stability index": "0.7025 ± 0.0028"},
      {"sequence": "EMLGDKVNKKGI [SOK1 C-terminal 12 aa]", "protein stability index": "0.727 ± 0.0085"},
      {"sequence": "EMNNIIAASRRH [RPL36A C-terminal 12 aa]", "protein stability index": "0.701 ± 0.0077"},
      {"sequence": "ENAEKQRTLKKN [RIA1 C-terminal 12 aa]", "protein stability index": "0.6927 ± 0.00075"},
      {"sequence": "ENAHMQSAESCN [YLR236C C-terminal 12 aa]", "protein stability index": "0.682 ± 0.011"},
      {"sequence": "ENASQLPHPSQK [ZIM17 C-terminal 12 aa]", "protein stability index": "0.698 ± 0.024"},
      {"sequence": "ENDPWKVVRLAP [PDX3 C-terminal 12 aa]", "protein stability index": "0.711 ± 0.019"},
      {"sequence": "ENLVKQEAINGS [YAF9 C-terminal 12 aa]", "protein stability index": "0.6823 ± 0.0044"},
      {"sequence": "ENVDSPRKSNQL [SLM2 C-terminal 12 aa]", "protein stability index": "0.69 ± 0.018"},
      {"sequence": "EPFGPKMSTVQV [YHB1 C-terminal 12 aa]", "protein stability index": "0.6732 ± 0.0032"}
    ]}
  ]
}
